Assay results from article PMC10858482, “Computational design and engineering of self-assembling multivalent microproteins with therapeutic potential against SARS-CoV-2” (Journal of Nanobiotechnology, 2024).

Target: T1, RBD of the S protein of SARS-CoV-2 (Omicron BA.1) (SARS-CoV-2 Omicron BA.1, strain)
T1 construct: also called RBD (Omicron BA.1)
Experiment: BLI; Octet RED96e; RBD (Omicron BA.1) immobilised on streptavidin (SA) biosensors; analyte 500-31.25 nM Nb67 or 100-3.125 nM Tr67 in 1x PBS, 0.02% Tween-20, 0.1% BSA; association 1 min, dissociation 3 min; 1:1 binding model
Settings: both partners purified

B1: nanobody Nb67 (VHH)
VHH: EVQLVESGGGLVQTGGSLRLSCALSGYTFSIFPTAWFRQAPGKEREFVAGIRWNGSTRDYTEYADFVKGRFTISRDNAKNMVYLQMISLKPEDTALYYCAASDGVIDGTNANAYRYWGQGTQVTVSS
notes: also called monovalent Nb67
B1 was tested, and the Kd was 15.2 nM.
